Test results as given in the supplement of paper PMC12764529.
± gives the half width of the 95% confidence interval.

Tests used:
[1] = folding stability dG unfold from trypsin proteolysis; higher = more stable
Summary of the method: (§1)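 Digests were run with trypsin and chymotrypsin at 11 concentrations in threefold dilutions, plus a no-protease condition, on designed mini-proteins in a PA-tagged cDNA display construct. The mini-proteins were under 80 residues, had no cysteine, and were kept only when AlphaFold2 dimer inter-PAE was above 15. After sequencing, Bayesian fitting of the counts gave K50, from which unfolding free energy was derived against a sequence-predicted unfolded-state K50 and a shared folded-state K50, per protease or combined.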

[2] = folding stability dG unfold from chymotrypsin proteolysis; higher = more stable
Summary of the method: as §1

[3] = folding stability dG unfold (combined trypsin and chymotrypsin); higher = more stable
Summary of the method: as §1

Sequence | folding stability dG unfold [1] [kcal/mol] | folding stability dG unfold [2] [kcal/mol] | folding stability dG unfold [3] [kcal/mol]
GRMYIVKIEIKVKRRDPEEGETRERKLEVHVIFPPNDPDALEKADEIARNLAEEDGITDVKVKIYPIRLPDS [r1_346_TrROS] | 1.48 ± 0.051 | 1.89 ± 0.073 | 1.74 ± 0.22
GSLVTVFPFPENGKTVEVVVPESVGTPLSEAEIRALLLEAHPDVPAAALPAEEAAEILQATPGVEAARVVAS [r1_463_JUSTAS] | -0.877 ± 0.7 | -0.0131 ± 0.19 | -0.302 ± 0.35
ITITYDKETGELTVTLSVEIEREDGYLVRVSVTIRINPNGEIKIEKKIEVIKLPPAEVKLTDEELEKLKKES [r1_4_TrROS_Hall] | 2.41 ± 0.1 | 2.51 ± 0.11 | 2.49 ± 0.27
KAYKVVFPLPKEGRTVVVYVPEEHGKPLTEEEIAALLREAYPDKEPADLPAEELAKILAAKEGVVRVEVEGS [r1_463_TrMRF] | 0.866 ± 0.089 | 0.995 ± 0.12 | 1 ± 0.13
KETVTLEFELEDGSKVRVEVDLETKEVKVEVEKPPAPPPPPVIVLPPGLTEEERERLIKELEKKGIKVVVLS [r1_242_TrROS_Hall] | 2.25 ± 0.13 | 2.21 ± 0.09 | 2.28 ± 0.13
SAGEIAEALGFEVVDVSIEEVDGKLRITVVVRFKDNDLVITAEAEVTEVDGELKIEIKITIEPLPPEDLSAG [r5_516_TrROS_Hall] | 2.85 ± 0.26 | 3.66 ± 0.37 | 
SAGGMVVVKIRIEREVDGKVEEVELVLEVELDEDGKVSAEELKALLKELLPENVKITEIEVVEPGEEPSAGG [r13_504_TrROS_Hall] | 4.76 ± 0.69 | 3.39 ± 0.2 | 
SAGGSAGGSAGGGMGSSVTITTEEDPTDETETTKKTKVTLNLPNPEEAEALKKKIEEKESAGGSAGGSAGGS [r10_1180_JUSTAS] | -0.47 ± 0.18 | -0.807 ± 0.68 | 
SAGGSAGGSAGGSKKVIEVPAKDLTPEQLKKLAKEGETIEITFPNGEKKEIPAEKLKPKSAGGSAGGSAGGS [r4_382_TrROS_Hall] | 0.115 ± 0.15 | -0.998 ± 0.9 | 
SAGGSAGGSAGMTITVPITDLEKLKTMPELPVEVIEEGEGPPTATLDASNPELAKQAYSSSAGGSAGGSAGG [r11_65_JUSTAS] | -0.0977 ± 0.18 | 0.117 ± 0.49 | 
SAGGSAGGSEEVEIRIVLPDMSEEELKAALEALLSEPGAEIEIVRVERREDGSLVVTVKVRVPSAGGSAGGS [r12_348_TrROS_Hall] | 4.83 ± 0.43 | 2.9 ± 0.12 | 
SAMTIEITVPPGMSVEELAKLLKELFPEVEEIKIEVEYDEETKELKVRIEIRPKPELSEEEKEALEKLKSAG [r14_645_TrROS_Hall] | 2.9 ± 0.28 | 3.99 ± 0.47 | 
SLEEFLASEEAKKRLEALKPPPPVETIRIKVKAKSVEEALKAIRELFPGVEVVKIKEVRPDGYLEVEVRRSA [r9_723_TrROS_Hall] | 3.89 ± 0.41 | 2.37 ± 0.36 | 
SMPISAEELAELFPGVVEIKPEPDSTVITAKDPNGTNPVFTLSPAGTVTVTTYTPGSGTTTTTTIPTALLSA [r9_427_JUSTAS] | 0.681 ± 0.025 |  | 0.159 ± 0.071
SMSEELKKEIEAFLKEKGASIDFKTDPSTGKITITVTIPGKGTTTTITLTFPPDNPEEIKEKIKELIEKGSA [r9_42_JUSTAS] | 4.88 ± 0.6 |  | > 6
SMSPSETETTTYTRTIPFPKSNPEQAKAEAEKEVRAELEAKGLKIDIPITIEWENDTVTVTIPISVTPPLSA [r9_889_JUSTAS] | 0.594 ± 0.13 |  | -0.144 ± 0.29
SMTITHKIPPDDPEKAEEEIKEKIEKETGLKVEKVEVPEGDGATLVVTIDKEKPVVTAEVVPLLPDGTPVSA [r9_173_JUSTAS] | 0.85 ± 0.17 |  | 0.191 ± 0.35
SSFMEQARNMAEELLQKKGLPPKPGEKVEIPIPYPNGMQIRITINPEEKKIDVEFYNDNQPVEHTFKIKKSA [r9_426_TrROS] | 0.267 ± 0.33 |  | -0.821 ± 0.76
SSMSTPSSSTLTVELPDREVTASATTTTLPDGTTTTTTTFPDGSTITYDPATGTTTIYDPATGAPLATTGSA [r9_970_JUSTAS] | 0.959 ± 0.048 |  | 0.344 ± 0.047
SVPPFLNLPEAAKALAKAKPGPPVPRLTFPVTTDDPEEALEEILKQYPHLHPDKIKRVEVGDGYLTVEFGSA [r9_723_TrMRF] | -0.936 ± 0.34 |  | < -1
SVVNFPVSLAATRDGNPVPIEEVLERVAKEIGGPDVKPEIKPGPGDTLVATVKLPDGTTATASDSSSVTDAS [r1_168_JUSTAS] | -0.293 ± 0.11 |  | < -1
SVVTLEQVAELVEKGVELVAVLPDNRLLFYDPEREEPIELEVEEVPPPKPIFIEGGVESLEEALKFLEAESA [r9_649_TrMRF] | 0.456 ± 0.027 |  | -0.381 ± 0.37
